The text below walks through data of paper PMC10648076, “Statistical Improvement of rGILCC 1 and rPOXA 1B Laccases Activity Assay Conditions Supported by Molecular Dynamics” (Molecules, 2023).

Substrate in this data set: CCn1c(=NN=c2sc3cc(S(=O)(=O)O)ccc3n2CC)sc2cc(S(=O)(=O)O)ccc21
Briefly: spectrophotometric ABTS oxidation; Michaelis-Menten fit. Type of data set: biochemical, Pleurotus ostreatus. The note with it: 100 mM sodium citrate buffer, pH 3.0 ± 0.2, 25 °C, apparent constant, enzyme concentrate. An excerpt: spectrophotometric ABTS oxidation; Michaelis-Menten fit on rPOXA 1B

B1: rPOXA 1B (Pleurotus ostreatus) (protein)
chain: SIGPRGTLNIANKVIQPDGFYRSTVLAGGSYPGPLIKGKTGDRFQINVVNKLADTSMPVDTSIHWHGLFVKGHNWADGPAMVTQCPIVPGHSFLYDFEVPDQAGTFWYHSHLGTQYCDGLRGPLVVYSKNDPHKRLYDVDDESTVLTVGDWYHAPSLSLTGVPHPDSTLFNGLGRSLNGPASPLYVMNVVKGKRYRIRLINTSCDSNYQFSIDGHTFTVIEADGENTQPLQVDQVQIFAGQRYSLVLNANQAVGNYWIRANPNSGDPGFENQMNSAILRYKGARSIDPTTPEQNATNPLHEYNLRPLIKKPAPGKPFPGGADHNINLNFAFDPATALFTANNHTFVPPTVPVLLQILSGTRDAHDLAPAGSIYDIKLGDVVEITMPALVFAGPHPIHLHGHTFAVVRSAGSSTYNYENPVRRDVVSIGDDPTDNVTIRFVADNAGPWFLHCHIDWHLDLGFAVVFAEGVNQTAAANPVPEAWNNLCPIYNSSNPSKLLMGTNAIGRLPAPLKA
notes: secreted from Pichia pastoris/pGAPZαA-LaccPost-Stop (Clone 1); recombinant culture concentrate, not purified
For the protein B1, the Km came out at 37.2 µM and the Vmax amounted to 10.5 µM/min.
